One protein from paper doi:10.1101/2024.01.24.577054 (bioRxiv, 2024) can be followed below.

The data set concerns the molecule itself. Nature of the data set: FRET or BRET.

B1: BmrA, homodimeric multi-drug resistance ABC exporter from B. subtilis (His-C-ter-BmrA), labelled with sulfo-Cy3/sulfo-Cy5 (natural protein, UniProt O06967 1-589, looked up)
chain: MPTKKQKSKSKLKPFFALVRRTNPSYGKLAFALALSVVTTLVSLLIPLLTKQLVDGFSMSNLSGTQIGLIALVFFVQAGLSAYATYALNYNGQKIISGLRELLWKKLIKLPVSYFDTNASGETVSRVTNDTMVVKELITTHISGFITGIISVIGSLTILFIMNWKLTLLVLVVVPLAALILVPIGRKMFSISRETQDETARFTGLLNQILPEIRLVKASNAEDVEYGRGKMGISSLFKLGVREAKVQSLVGPLISLVLMAALVAVIGYGGMQVSSGELTAGALVAFILYLFQIIMPMGQITTFFTQLQKSIGATERMIEILAEEEEDTVTGKQIENAHLPIQLDRVSFGYKPDQLILKEVSAVIEAGKVTAIVGPSGGGKTTLFKLLERFYSPTAGTIRLGDEPVDTYSLESWREHIGYVSQESPLMSGTIRENICYGLERDVTDAEIEKAAEMAYALNFIKELPNQFDTEVGERGIMLSGGQRQRIAIARALLRNPSILMLDEATSSLDSQSEKSVQQALEVLMEGRTTIVIAHRLSTVVDADQLLFVEKGEITGRGTHHELMASHGLYRDFAEQQLKMNADLENKAG
modifications: sulfo-Cy3 or sulfo-Cy5 maleimide dye on C436 (the sole Cys residue of each monomer)
On to B1, for which the binding result is “binds”.
